{
  "source": "paper PMC6591306",
  "test_in_all_cases": "cysteine cross-linking, non-reducing SDS-PAGE, quantification of fluorescent blots",
  "key": {"[1]": {"biological_target": "GB1 double cysteine mutant with one cysteine in TM4 and one in TM1 (co-expressed with a non-mutated GB2)", "settings": "+ CuP, co-expressed with GB2Ctr, parent: est. 2, read off a plot"}, "GB1 1.45/6.55": {"biological_target": "GB1 1.45/6.55", "settings": "+ CuP, co-expressed with GB2Ctr, parent: est. 2, read off a plot"}, "[2]": {"biological_target": "GB1 double cysteine mutant with one cysteine in TM5 and one in TM1 (co-expressed with a non-mutated GB2)", "settings": "+ CuP, co-expressed with GB2Ctr, parent: est. 2, read off a plot"}, "GB1 4.52/6.55": {"biological_target": "GB1 4.52/6.55", "settings": "+ CuP, co-expressed with GB2Ctr, parent: est. 2, read off a plot"}, "[3]": {"biological_target": "GB1 double cysteine mutant with one cysteine in TM4 and one in TM7 (co-expressed with a non-mutated GB2)", "settings": "+ CuP, co-expressed with GB2Ctr, parent: est. 2, read off a plot"}, "[4]": {"biological_target": "double mutant of GB1 carrying one cysteine in TM5 (I771C^5.42) and one in TM7 (L838C^7.34)", "settings": "+ CuP, co-expressed with GB2Ctr, parent: est. 2, read off a plot"}, "GB2^5.40": {"biological_target": "GB2^5.40", "settings": "+ CuP; cell surface SNAP-GB1 labelled with fluorescent SNAP substrate; no ligand; parent: est. 2; read off a plot"}, "GB2^5.41": {"biological_target": "GB2^5.41", "settings": "+ CuP; cell surface SNAP-GB1 labelled with fluorescent SNAP substrate; no ligand; parent: est. 2; read off a plot"}, "GB2^5.45": {"biological_target": "GB2^5.45", "settings": "+ CuP; cell surface SNAP-GB1 labelled with fluorescent SNAP substrate; no ligand; parent: est. 2; read off a plot"}, "GB2^6.54": {"biological_target": "GB2^6.54", "settings": "+ CuP; cell surface SNAP-GB1 labelled with fluorescent SNAP substrate; no ligand; parent: est. 2; read off a plot"}, "GB2^6.55": {"biological_target": "GB2^6.55", "settings": "+ CuP; cell surface SNAP-GB1 labelled with fluorescent SNAP substrate; no ligand; parent: est. 2; read off a plot"}, "[5]": {"biological_target": "GB2^5.42 (cysteine mutant of GB2^Ctr at position 5.42) (UniProt O88871)", "settings": "+ CuP; cell surface SNAP-GB1 labelled with fluorescent SNAP substrate; no ligand; parent: est. 2; read off a plot"}, "[6]": {"biological_target": "GB2 L711C^6.59 (in GB2^Ctr) (UniProt O88871)", "settings": "+ CuP; cell surface SNAP-GB1 labelled with fluorescent SNAP substrate; no ligand; parent: est. 2; read off a plot"}},
  "data": [
    {"substance": "GB1^Ctr (control GABAB1 subunit: SNAP-tagged rat GB1a truncated in the C-terminal region) 1.45 Cys; 4.52 Cys", "values": [
      {"measurement": "other: Oligomer (% total GB1)", "setting": "[1]; + GABA 100 μM", "value": 32, "unit": "% total GB1"},
      {"measurement": "other: Oligomer (% total GB1)", "setting": "[1]; no agonist", "value": 24, "unit": "% total GB1"}
    ]},
    {"substance": "GB1^Ctr (control GABAB1 subunit: SNAP-tagged rat GB1a truncated in the C-terminal region) 1.45 Cys; 6.55 Cys", "values": [
      {"measurement": "other: Oligomer (% total GB1)", "setting": "GB1 1.45/6.55; + GABA 100 μM", "value": 4, "unit": "% total GB1"},
      {"measurement": "other: Oligomer (% total GB1)", "setting": "GB1 1.45/6.55; no agonist", "value": 2.5, "unit": "% total GB1"}
    ]},
    {"substance": "GB1^Ctr (control GABAB1 subunit: SNAP-tagged rat GB1a truncated in the C-terminal region) 1.45 Cys; I771C", "values": [
      {"measurement": "other: Oligomer (% total GB1)", "setting": "[2]; + GABA 100 μM", "value": 12, "unit": "% total GB1"},
      {"measurement": "other: Oligomer (% total GB1)", "setting": "[2]; no agonist", "value": 5, "unit": "% total GB1"}
    ]},
    {"substance": "GB1^Ctr (control GABAB1 subunit: SNAP-tagged rat GB1a truncated in the C-terminal region) 4.52 Cys; 6.55 Cys", "values": [
      {"measurement": "other: Oligomer (% total GB1)", "setting": "GB1 4.52/6.55; + GABA 100 μM", "value": 21, "unit": "% total GB1"},
      {"measurement": "other: Oligomer (% total GB1)", "setting": "GB1 4.52/6.55; no agonist", "value": 16, "unit": "% total GB1"}
    ]},
    {"substance": "GB1^Ctr (control GABAB1 subunit: SNAP-tagged rat GB1a truncated in the C-terminal region) 4.52 Cys; L838C", "values": [
      {"measurement": "other: Oligomer (% total GB1)", "setting": "[3]; + GABA 100 μM", "value": 12, "unit": "% total GB1"},
      {"measurement": "other: Oligomer (% total GB1)", "setting": "[3]; no agonist", "value": 7, "unit": "% total GB1"}
    ]},
    {"substance": "GB1^Ctr (control GABAB1 subunit: SNAP-tagged rat GB1a truncated in the C-terminal region) I771C; L838C", "values": [
      {"measurement": "other: Oligomer (% total GB1)", "setting": "[4]; + GABA 100 μM", "value": 2.5, "unit": "% total GB1"},
      {"measurement": "other: Oligomer (% total GB1)", "setting": "[4]; no agonist", "value": 1, "unit": "% total GB1"}
    ]},
    {"substance": "m1; m2 GB1:5.40 Cys; GB2:5.40 Cys", "values": [
      {"measurement": "other: Change of GB1-GB2 dimer cross-linking (%)", "setting": "GB2^5.40", "value": 12, "unit": "%"}
    ]},
    {"substance": "m1; m2 GB1:5.41 Cys; GB2:5.41 Cys", "values": [
      {"measurement": "other: Change of GB1-GB2 dimer cross-linking (%)", "setting": "GB2^5.41", "value": 28, "unit": "%"}
    ]},
    {"substance": "m1; m2 GB1:5.45 Cys; GB2:5.45 Cys", "values": [
      {"measurement": "other: Change of GB1-GB2 dimer cross-linking (%)", "setting": "GB2^5.45", "value": 24, "unit": "%"}
    ]},
    {"substance": "m1; m2 GB1:6.54 Cys; GB2:6.54 Cys", "values": [
      {"measurement": "other: Change of GB1-GB2 dimer cross-linking (%)", "setting": "GB2^6.54", "value": 23, "unit": "%"}
    ]},
    {"substance": "m1; m2 GB1:6.55 Cys; GB2:6.55 Cys", "values": [
      {"measurement": "other: Change of GB1-GB2 dimer cross-linking (%)", "setting": "GB2^6.55", "value": 32, "unit": "%"}
    ]},
    {"substance": "m1; m2 GB1:I771C; GB2:5.42 Cys", "values": [
      {"measurement": "other: Change of GB1-GB2 dimer cross-linking (%)", "setting": "[5]", "value": 14, "unit": "%"}
    ]},
    {"substance": "m1; m2 GB1:I824C; GB2:L711C", "values": [
      {"measurement": "other: Change of GB1-GB2 dimer cross-linking (%)", "setting": "[6]", "value": 28, "unit": "%"}
    ]}
  ]
}
